For one substance, Kd estimated from the kinetics and half-life results are on record in PMC10938568.

As a reminder, the half-life is the time needed for the level to fall by half in the phase considered.

In the assay the target is GST-PreScission-p62 FIR 4P (human) (UniProt Q13501). In words: SPR.

For the substance “His8-TEV-LC3B (1 to 125) (from UniProt Q9GZQ8 1-120) (natural protein)”, the Kd estimated from the kinetics is 0.08 µM and the half-life stood at 20 min.
